# Test results: the DeepSol protein solubility set
# Test: soluble on expression in E. coli; label from the status in PepcDB or PDB records
row,Sequence,soluble on expression in E. coli
1,MGINERLRHVIEAQKMTIKGFAETVDIPLRSVHNYLSGEREPSADALTKISNKLNINLNWLLLDQGEMYLNQSSDLTLNADEMNLLTQYRQTHDSGKRILQATSKIILDELK,not soluble
2,MSLKIAEAAARSGLSIDTIRFYERSGLLPPIARGADGMRRFSPETVDWLRLLASLRETGMELRAMRRFAELYRQGDATIPERRRILQDHAASLNGRRAALDRCAALLAHKLQRYCEIEGEGHHHHHH,not soluble
3,LADSSDVTEVENYMKANYDVPNNVYFGKAEGKNVIYVSLESLQSFIIDYKIDGKEVTPFLNKLAHDNETFYFDNFFHQTGQGKTSDAEFMMENSLYPLAQGSVFVNKAQNTLQSVPAILKSKNYTSATFHGNTQTFWNRNEMYKAEGIDKFFDSAYYDMNEENTKNYGMKDKPFFKESMPLLESLPQPFYTKFITLSNHFPFGMDEGDTDFPAGDFGDSVVDNYFQSAHYLDQSIEQFFNDLKKDGLYDKSIIVMYGDHYGISENHNKAMAKVLGKDEITDYDNAQLQRVPLFIHAAGVKGEKVHKYAGDVDVAPTILHLLGVDTKDYLMSGSDILSKEHREVIPFRNGDFISPKYTKISGKYYDTKTGKELDESEVDKSEDSLVKKELEMSDKIINGDLLRFYEPKGFKKVNPSDYDYTKHDEDSSETSKDNEDK,soluble
4,MSLEKTKLPWDEFFSLNKDINHTYFTPEDFSGDEDLIAKTTEQFVKQEIVPQMENIEQHNYKVSRQLFEKAGELGLLGIEVPEDYGGFELGKAVSGLVAEKMGYAGAFSVSFNIHAGVGTLPYIYYGTKEQKEKYLPKIASGEWIGAYALTEPNAGSDALSAKTSAVLNEEGTAWKLNGEKQWITNAHMADVYVVFAKTNKGMTAFIVERTCEGVSIGLEEKKMGIKGSSTATLILEDVVIPAENVLGEVGKGHHVALNILNFARLKLAFGNIGTAKQAIGLSVQYGKERKQFQTELVDFTMIQEKIANMIIATYGAESAAYRTAGVIDEAIHESDEDLMKKMSQFAIECALNKVNASETLAYIVDEAVQIHGGYGYMQEYEVERLYRDARISRIFEGTNEINRLTVAKMLMKQIEQLEDTEVESDVANVERNHRYILLAKKLLKQSLKTLSKTPGLKIDQEQEYSRVISNMLTDVYVMESAFLRTRKAVSKNGEEKERTKQLITDVICEEGYRKVEEAAISVLSAAVTEEQDRHVILAEIRQLLVPLYTNVFTKKREIAKAIINRGKYIVEGHHHHHH,soluble
5,MMNNMDSIINYIYEGDYFIVTSHISPDGDNIGSTLSMYYTLKNLGKNVYYVLDDEAPLNLRFLVEGVKIYKSNEFNMKNYSLIALDCGDKMRICVSDEIKNNASKLICIDHHASNDSYGDLNYVDIDASSTCELVYNLLVRFQQIKDINIINEDIATCLYTGLVTDTGNFSYSNVHASSFEMAKNLLVLGAQKNTIIQNIYQSNSSGYYKLLGEALKGLEIFDSKVSSIVLTQDMMNRNNISFNDVDGITTYTRDIKGIEVGILFKEKKQNEIKVSFRSKNYVDVSEIAKLFGGGGHVRAAGCTIRDSIDNAKKMVLEAVLKSI,not soluble
6,MSRDLPSLNALRAFEAAARLHSISLAAEELHVTHGAVSRQVRLLEDDLGVALFGKDGRGVKLTDSGVRLRDACGDAFERLRGVCAELRRQTAEAPFVLGVPGSLLARWFIPRLDQLNRALPDLRLQLSTSEGEFDPRRPGLDAMLWFAEPPWPADMQVFELAPERMGPVVSPRLAQETGLAQAPAARLLQEPLLHTASRPQAWPAWAASQGLAAEALRYGQGFEHLYYLLEAAVAGLGVAIAPEPLVRDDLAAGRLAAPWGFIETDARLALWVPARLHDPRAGRLAQWLREQLAG,not soluble
7,MIKDLVRPELQKLVPYVSHQVPYRIKLDANESPFELPESIRKKLADYFLKGPGLNIYPDNESVELRKTIAKYWNVDADEVIVGTGSNQLIQLIITVFVGKGEKVLYPWPTFSMYKINTLIAGGEPVAFPLDKEKDFVLDTDKFIEAVKTENAKVVFLCNPNNPTGGLVPLEHIEKIVKECKSSIIVVDEAYAEFCPQSVIPLVKKYENLVVLRTFSKAYLLAGARCGYSISGIEIANEINKVRPTYNVSSLTQLIAKMVFEEQEEMQKMIRYLIEQRGELEKSLKKIKDVCIYPSHANYILVKVPEAEMISKELQKRGILIRSFPNDPVLYDCIRITVGTKEQNDIFLEEFSDIINNF,not soluble
8,MGSDKIHHHHHHMTTILQLSDLHIGPHNDEKDQKTYDLIHHMMTHYQPDITVLTGDQIWSEGVIDSGRVYKKLMEYLNRYDTQIATTFGNHDTEGHLKRSDLRAIEDQYSTNYVQKNHSLIVDDKEAYTIEVVNNDTVTHVLYVIDGGDYNPFGIGDYDFIRPEHVNWLRETHQAYQTQFQHNFQHNLLFTHIPLQEYREVENIGEYHGIFNEPIACSKINSGLFSQMLLNGDIEGMFCGHDHDNDFTINLYGIRLSFGRIGGYNTYGDLQRGARLIELQPDAIYKSKVLEFDDRF,not soluble
9,MGSDKIHHHHHHMGLEQDDEGGARRACVIVIGNQKGGSGKSTVAMHLVVSLARAGLRTGSIDLDAGQATLTRYLENRRAFAEKRGLDLPSPEHVPMVPGTSLEADIRRLEHSMLAFHEEVDVVVIDTPGSDTALNRAAHALADVLITPLNDSFIDLDVMARIDGDSMTITGPSPYAAAVWEAKQARARRDGTSMRWIVMRNRLSHLDARNKRDMEDALNDLSRRIGFSVVPGLGERVIYRELFLNGLTLLDLKDKGTGVDISMSHVAARQELRALLAAIGMPKSIGL,not soluble
10,AHHHHHHGSVIEEEGKVEILPRDVDLSKYVDSVEVDVDNFGDYHELRKELREKKMRFIDANVFIYAILKPKRELNEKELKIKRVSKEIFNRINGGEEVVTTVVHLSEVANVLEDAANLSFAISFLKDVLIKGNVIVEEVSDRDYMESVLLAEEKGVSINDALAYILMKRKGIEEIYTFDRHFENLDVRIVNS,soluble
11,LAELFEKAAAHLQGLIQVASREQLLYLYARYKQVKVGNCNTPKPSFFDFEGKQKWEAWKALGDSSPSQAMQEYIAVVKKLDPGWNPQIPEKKGKEA,soluble
12,MPEIITPIITPFTKDNRIDKEKLKIHAENLIRKGIDKLFVNGTTGLGPSLSPEEKLENLKAVYDVTNKIIFQVGGLNLDDAIRLAKLSKDFDIVGIASYAPYYYPRMSEKHLVKYFKTLCEVSPHPVYLYNYPTATGKDIDAKVAKEIGCFTGVKDTIENIIHTLDYKRLNPNMLVYSGSDMLIATVASTGLDGNVAAGSNYLPEVTVTIKKLAMERKIDEALKLQFLHDEVIEASRIFGSLSSNYVLTKYFQGYDLGYPRPPIFPLDDEEERQLIKKVEGIRAKLVELKILKE,soluble
13,MNIIDFNKPVKRSFRGNTAPAPPLEKVLTVILKTDVPVLMGICSDGLRSNSAILGGEFQAEYFSGSVLSGGGNVLVELSSELAFLETRFTLITQLGELINVECKGVLLMDEEGQQELQSGVWPISEGHYQCTCTPRFQVSLGPNDWLEKSAFIGKIDYIQRNETLISFYRMKL,not soluble
14,SKNFNYTISFVGSTSNNKFVSFSNQFYEGPKYYWMSNFPLYPGNPGVLQRIEEGERIGNFYTFQYAGLDDNGGWLIYSKDGEVIPIDKGTDEDKRVVGNGLPKFTMSVTHTFRCKNLDLNLYFRGNLGYQIYDVHDLYYGLQDAAPNTNVLESAYKENRKITTGKNVHSSYFVHNGDFMKLDVATLGYTWNINNKWVEKARFYITGRNLFTISGYHRGLDKDAYCVNGMEPGLPYSKNGYYPSSRQFLFGIQLNF,not soluble
15,MKRRKQSRRWRGKKYAPVMIGMLVLLMNLADLKISNLISGSIICQAAERQSENTETENNSGGTEKEKITQTEASTVSDILEELDLSRVQRMLDQMLGEESFSMKDMLDGLIKGEKVLSEDTVQEMVHSFLFSGLEKEKS,not soluble
16,MMIMLDPFSEKAKELLKGFGSINDFMDAIPKIVSVDDVIERIRVVKNEKLIDKFLDQDNVMDLAQFYALLGALSYSPYGIELELVKKANLIIYSERLKRKKEIKPEEISIDVSTAIEFPTEDVRKIERVYGKIPEYTMKISDFLDLVPDEKLANYYIYEGRVYLKREDLIRIWSKAFERNVERGVNMLYEIRDELPEFYRKVLGEIQAFAEEEFGRKFGEIQGGKLRPEFFPPCIKNALKGVPQGIRNYAITVLLTSFLSYARICPNPPRRNVRVKDCIKDIRVITEEILPIIIEAANRCSPPLFEDQPNEIKNIWYHLGFGYTANPSLEDSGNSTWYFPPNCEKIRANAPQLCTPDKHCKYIRNPLTYYLRRLYLEGRRNAPKRGNKRGKKELLHQLEHHHHHH,soluble
17,MLNPDELVAIDIHTHAEEPCGCHADDGYDDFQARMAEYFGSPNKHPPTVPETAAYYRAKKIAAVIFPVDAERETGFRRYNNDEMIEITRQNSDVLIPFASIDPHKGKIGVREARRLIADYGIKGFKFHPTMQGFYANDRLAYPLYEAIQEGGAIALFHTGQTGVGSGMPGGMGMRLKYSNPMYMDDVAADFPDMKIVLAHPSFPWQEEALSVATHKPNVYIDLSGWSPKYFPPILVRYINSILQDKMLFGSDWPVITPDRWLSDFAKLEIREEVRAKVLKQNARKLLGIAAALEHHHHHH,not soluble
18,MTEIQTIRKKVEQQITSLQNETDEIAEFNQAKVLDAFQENKVSDFHFNPSTGYGYDDEGRDTLERVYASVFKTEAALVRPQIISGTHAISTVLFGILRPGDELLYITGEPYDTLEEIVGIRSEGQGSLKDFQIGYDAVPLLPNGEIDYPAVSKKISANTKMIGIQRSRGYADRPSFTIEKIKEMVTFVKNINPNIIVFVDNCYGEFVERIEPTEVGADIIAGSLIKNPGGGLAKTGGYIAGRNTLVDLCGYRLTTPGIGREAGASLYSLLEMYQGFFLAPHVTAQAIKGARFTAAMLAEFGVEADPLWDAKRTDLIQSVSFHSKDKMIAFAQAIQAASPVNAHVLPIGAYMPGYEDDVIMAAGTFIQGASLELTADGPIREPYQLYVQGGLTYEHVKIAVTRAIENSLLEHHHHHH,soluble
19,MAAACICQPNLLEINVSDGPLDMIRKKRKIQQPQLRPPLRENKCQPHFSVRKVNQSYIISLHKEITCQLIAEIVKQKLSRIWEKVYIPSYELISDKDGNQIYVEQSVDENRLTSEIMEKLDPNNIDIEAIEILFDDYHLELSRLTNGIIISSANDHFYREFSFNNIIDDNFKICGTSMSADSFDKIYGVMWIEVPFNGNGLQNDSAVNRVSTSHNQIEELNDIEQEIRAFNISRSNQESIIKKEVSRRLNGR,not soluble
20,MNGVYDVGGTDGLGPINRPADEPVFRAEWEKVAFAMFPATFRAGFMGLDEFRFGIEQMNPAEYLESPYYWHWIRTYIHHGVRTGKIDLEELERRTQYYRENPDAPLPEHEQKPELIEFVNQAVYGGLPASREVDRPPKFKEGDVVRFSTASPKGHARRARYVRGKTGTVVKHHGAYIYPDTAGNGLGECPEHLYTVRFTAQELWGPEGDPNSSVYYDCWEPYIELVDT,soluble
21,MVIMVNTEYIPGKRIVKVFGTIWGITVRSRGLGGNLVAGLRSLAGGEIKEYTKMLSDARNTAMERLQSAAEQIGANAVINVRFDSSDIGQVMTEIVAYGTAVLVE,soluble
22,MSDRKAVIKNADMSEDMQQDAVDCATQAMEKYNIEKDIAAYIKKEFDKKYNPTWHCIVGRSGNFGSYVTHETKHFIYFYLGQVAILLFKSG,soluble
23,MNVFYTREGVGDVLLVSLKPAADEERTFVRQGDVVRIMSERTGETVGYNIFSASSYYPFSGNGPLEVNEELVGVINDILAKNGFDEPIEADLSPKFVVGYVKEKTKHPNADKLSVCQVDVGGEVLQIVCGAPNVAEGQKVVVAKIGAVMPNGLVIQESELRGVRSSGMICSARELGLPNAPQEKGILVLSDEYEVGQPFVF,not soluble
